Results from PMC12295313 (2025).
Changes are numbered by the printed parent chain. Values belong to the binder of their own block, whether it stands above or below them.

What was measured:
[1] = target: T1, FGFR1c ectodomain (extracellular ligand-binding domain of FGFR1c), P11362; experiment: SPR; settings: chains chain, remark: other sources report otherwise
T1 chain: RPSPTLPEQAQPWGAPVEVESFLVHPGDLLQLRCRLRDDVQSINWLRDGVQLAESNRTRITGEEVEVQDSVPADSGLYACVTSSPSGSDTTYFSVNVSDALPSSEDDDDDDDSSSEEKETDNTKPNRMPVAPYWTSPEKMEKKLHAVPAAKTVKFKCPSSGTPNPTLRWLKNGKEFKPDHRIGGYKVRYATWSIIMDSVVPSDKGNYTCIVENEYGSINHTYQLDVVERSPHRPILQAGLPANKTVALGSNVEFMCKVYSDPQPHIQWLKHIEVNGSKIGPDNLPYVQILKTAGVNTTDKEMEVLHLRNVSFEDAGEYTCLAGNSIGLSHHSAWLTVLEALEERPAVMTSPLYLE

[2] = target: T2, FGFR1c ectodomain (extracellular ligand-binding domain of FGFR1c) (UniProt P11362 22-376); experiment: SPR
T2 chain: T1 chain

Kd [1]: 7.96 µM
B1: Recombinant human wild-type FGF21 (His29-Ser209), Q9NSA1 29-209 (protein)
chain: HPIPDSSPLLQFGGQVRQRYLYTDDAQQTEAHLEIREDGTVGGAADQSPESLLQLKALKPGVIQILGVKTSRFLCQRPDGALYGSLHFDPEACSFRELLLEDGYNVYQSEAHGLPLHLPGNKSPHRDPAPRGPARFLPLPGLPPALPEPPGILAPQPPDVGSSDPLSMVGPSQGRSPSYAS

Kd [2]: 3.94 µM
B2: FGF21^D2D3 (FGF21 with its R96–V106 region replaced by the L101–T111 segment of FGF1) (ligand)
chain: B1 chain with R96L, L98R, L100E, D102N, G103H, V106T
